For orientation: Kd means the constant that tells how readily two partners part at equilibrium.

The target in data set [1] is NS1A(1-73) RNA-binding domain of influenza A virus NS1 protein (Influenza A virus) (UniProt P03495). Nature of the data set: EMSA. To be noted: CITED Wang 1999; 10-fold higher affinity than for 55-bp dsRNA; cited from earlier work. On the technique in general: In EMSA bound probe runs differently from free probe, usually more slowly.
For data set [2], the target named is NS1A(1-73) RNA-binding domain of influenza A virus NS1 protein (Influenza A virus, UniProt P03495 P03495:1-73). Description: sedimentation equilibrium, 25 C, 1:1 dimer:duplex; summarized as ~1 uM. The note with it: tags: pET11a expression in E. coli BL21(DE3), no tag stated; chain copies: 2 (stated, homodimer); label: 5'-32P for gel shift; unlabeled otherwise.
Sequence of NS1A(1-73) RNA-binding domain of influenza A virus NS1 protein (P03495 1-73, one chain of several): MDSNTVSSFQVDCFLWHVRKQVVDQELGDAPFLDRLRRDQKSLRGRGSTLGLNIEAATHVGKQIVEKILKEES

Sequence of NS1A(1-73) RNA-binding domain of influenza A virus NS1 protein (Influenza A virus) (P03495 1-73): as the sequence (P03495 1-73, one chain of several) above

For the molecule 140-bp dsRNA, the binding signal in data set [1] was 10 fold.

B1: 16-bp dsRNA (RR) (dsRNA)
RNA 1: CCAUCCUCUACAGGCG
RNA 2: CGCCUGUAGAGGAUGG
For B1, the equilibrium dissociation constant (Kd) in data set [2] is 748 nM.

These data come from patent US20080234175, “Process for Designing Inhibitors of Influenza Virus Structural Protein 1” (published 2008).
